For this assay, the target named is HDAC6-EGFP WT (full-length human histone deacetylase 6 fused to EGFP) (human) (UniProt Q9UBN7). Nature of the assay: MST.
HDAC6-EGFP WT (full-length human histone deacetylase 6 fused to EGFP) (human), sequence (Q9UBN7 whole entry, the tested form may be a part): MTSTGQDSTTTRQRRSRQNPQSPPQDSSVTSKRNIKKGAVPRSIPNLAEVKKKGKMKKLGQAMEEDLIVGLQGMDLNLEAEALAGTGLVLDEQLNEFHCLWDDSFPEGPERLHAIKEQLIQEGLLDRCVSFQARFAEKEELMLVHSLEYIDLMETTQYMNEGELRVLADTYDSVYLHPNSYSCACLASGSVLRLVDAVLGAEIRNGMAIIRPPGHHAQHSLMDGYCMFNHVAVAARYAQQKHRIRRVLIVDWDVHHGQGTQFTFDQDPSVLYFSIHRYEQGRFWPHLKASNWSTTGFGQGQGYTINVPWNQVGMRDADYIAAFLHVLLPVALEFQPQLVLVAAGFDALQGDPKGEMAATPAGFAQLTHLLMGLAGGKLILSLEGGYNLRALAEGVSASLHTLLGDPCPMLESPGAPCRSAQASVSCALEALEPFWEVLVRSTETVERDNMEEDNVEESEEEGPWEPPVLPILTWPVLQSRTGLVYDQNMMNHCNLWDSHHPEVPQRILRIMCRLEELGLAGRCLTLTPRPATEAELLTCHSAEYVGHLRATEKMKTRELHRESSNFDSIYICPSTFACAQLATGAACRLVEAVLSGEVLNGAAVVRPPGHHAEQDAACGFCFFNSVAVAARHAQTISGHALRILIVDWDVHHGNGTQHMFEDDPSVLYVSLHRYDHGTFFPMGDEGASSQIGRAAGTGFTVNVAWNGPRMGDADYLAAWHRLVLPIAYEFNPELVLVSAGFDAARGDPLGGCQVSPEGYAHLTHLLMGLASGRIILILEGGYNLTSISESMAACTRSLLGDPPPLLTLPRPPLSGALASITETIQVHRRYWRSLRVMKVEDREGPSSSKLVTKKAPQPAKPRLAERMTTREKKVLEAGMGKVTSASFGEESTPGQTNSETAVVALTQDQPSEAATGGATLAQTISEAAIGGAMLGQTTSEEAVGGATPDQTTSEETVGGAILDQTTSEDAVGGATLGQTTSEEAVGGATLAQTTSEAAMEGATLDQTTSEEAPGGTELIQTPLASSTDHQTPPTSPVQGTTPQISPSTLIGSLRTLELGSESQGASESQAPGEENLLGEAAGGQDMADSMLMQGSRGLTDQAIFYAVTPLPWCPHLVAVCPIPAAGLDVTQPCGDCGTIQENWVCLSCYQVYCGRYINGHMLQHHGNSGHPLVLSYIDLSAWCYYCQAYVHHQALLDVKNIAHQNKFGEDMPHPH

NEDD8, human, recombinant, His-tag, sequence (Q15843 1-76): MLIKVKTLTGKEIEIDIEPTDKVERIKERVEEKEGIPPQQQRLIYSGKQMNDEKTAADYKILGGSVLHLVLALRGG

Substance “K63-linked tetra-Ub (from UniProt P0CG48)” registered a fold higher affinity than mono-Ub of 4 fold.
The substance “NEDD8, human, recombinant, His-tag (from UniProt Q15843 1-76) (natural protein)” registered a fold lower affinity than mono-Ub of 50 fold.
